Experimental data reported in paper PMC10901363 (Science Advances, 2024).
Where a chain is given by its changes, count along the chain named. Names and notes keep the numbering of the source. Values joined by “and” are separate entries in the source; they are usually repeats but may differ in a detail not shown here. Equal values may be shown once. Where no end group is shown, it is not given here. [ ]: non-standard residue; d: D form. pY = N[C@@H](Cc1ccc(OP(=O)(O)O)cc1)C(=O)O

How the values were obtained:
[1] = molecular target: mini PTPN21-EGFP (UniProt Q16825); assay: MST
[2] = molecular target: T1, PTPN21 FERM domain (FERM^PTPN21) (Homo sapiens, UniProt Q16825); assay: microscale thermophoresis (FERM-EGFP); type: binding
T1 construct: FERM domain, residues 21 to 319 (18 to 319 stated for the crystal); E. coli Rosetta (DE3), His-sumo tag removed; C-terminal EGFP fusion for MST; Flag-tagged for PIP-strips; monomer
T1 sequence (Q16825 21-319): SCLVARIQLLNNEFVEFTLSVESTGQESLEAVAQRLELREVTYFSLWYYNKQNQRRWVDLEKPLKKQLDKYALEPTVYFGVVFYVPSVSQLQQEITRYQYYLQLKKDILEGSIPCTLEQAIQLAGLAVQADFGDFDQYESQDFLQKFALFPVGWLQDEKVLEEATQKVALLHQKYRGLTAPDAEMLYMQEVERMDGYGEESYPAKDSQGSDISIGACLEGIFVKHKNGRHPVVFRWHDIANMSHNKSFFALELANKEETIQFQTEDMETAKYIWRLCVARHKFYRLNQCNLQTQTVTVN

[3] = molecular target: T2, PTPN21 PTP-EGFP (UniProt Q16825 872-1174); assay: MST; details: both partners purified
T2 construct: also called WT PTP-EGFP; source: E. coli Rosetta (DE3), purified (as the untagged domain); not shown: His-sumo, N-terminal, cleaved; EGFP, C-terminal, kept
T2 sequence (looked up): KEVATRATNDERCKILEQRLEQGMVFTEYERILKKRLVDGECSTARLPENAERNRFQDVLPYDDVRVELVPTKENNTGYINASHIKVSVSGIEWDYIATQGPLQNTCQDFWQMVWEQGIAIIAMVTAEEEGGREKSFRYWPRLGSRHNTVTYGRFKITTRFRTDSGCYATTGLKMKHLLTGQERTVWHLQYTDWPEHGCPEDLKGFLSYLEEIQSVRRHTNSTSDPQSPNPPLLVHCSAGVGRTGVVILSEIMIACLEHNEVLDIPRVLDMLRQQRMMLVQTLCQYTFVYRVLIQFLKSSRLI

[4] = molecular target: T3, mini PTPN21-EGFP (UniProt Q16825 878-1174; Q16825 878-1174); assay: MST; + Ins(1,3)P2
T3 chain: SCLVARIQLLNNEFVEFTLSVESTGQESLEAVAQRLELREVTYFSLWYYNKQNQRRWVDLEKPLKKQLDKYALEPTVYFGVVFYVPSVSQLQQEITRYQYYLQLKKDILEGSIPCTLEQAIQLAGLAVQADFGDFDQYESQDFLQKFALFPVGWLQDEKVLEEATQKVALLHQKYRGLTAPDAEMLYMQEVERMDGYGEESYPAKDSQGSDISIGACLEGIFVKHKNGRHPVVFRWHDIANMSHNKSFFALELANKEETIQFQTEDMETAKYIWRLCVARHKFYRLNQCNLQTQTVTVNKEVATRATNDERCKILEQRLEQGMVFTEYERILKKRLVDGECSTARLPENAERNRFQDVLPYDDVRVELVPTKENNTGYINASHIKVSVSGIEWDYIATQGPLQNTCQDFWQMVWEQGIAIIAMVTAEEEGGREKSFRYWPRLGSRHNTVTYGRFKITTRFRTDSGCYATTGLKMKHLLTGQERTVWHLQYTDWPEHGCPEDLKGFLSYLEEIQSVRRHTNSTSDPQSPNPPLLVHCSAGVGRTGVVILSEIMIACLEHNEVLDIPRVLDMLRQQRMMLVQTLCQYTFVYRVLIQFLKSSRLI

[5] = molecular target: T3, mini PTPN21-EGFP; assay: MST
[6] = molecular target: T4, PTPN21 PTP C1108S-EGFP (UniProt Q16825 872-1174, C1108S); assay: MST
T4 sequence: T2 sequence (looked up) with C237S

[7] = molecular target: T5, PTPN21 PTP E1067D C1108S-EGFP (UniProt Q16825 872-1174, E1067D | C1108S); assay: MST
T5 sequence: T2 sequence (looked up) with E196D, C237S

[8] = molecular target: T6, PTPN21 PTP R1114Q (UniProt Q16825 872-1174, R1114Q); assay: MST
T6 sequence: T2 sequence (looked up) with R243Q

[9] = molecular target: T7, PTPN21 PTP C1108S (UniProt Q16825 872-1174, C1108S); assay: crystal structure; PTP C1108S with twofold molar excess of Src pY530 peptide, hanging drop, 4°C; details: both partners purified
T7 construct: also called PTP^PTPN21 C1108S; source: E. coli Rosetta (DE3), purified (as the wild type); not shown: His-sumo, N-terminal, cleaved
T7 sequence (looked up): T2 sequence (looked up) with C237S

[10] = molecular target: T8, PTPN21 PTP C1108S-EGFP (UniProt Q16825 872-1174, C1108S); assay: MST; fluorescent PTP mutant-EGFP (80 nM) mixed with an increasing amount of Src pY530 peptide; 20 mM Hepes pH 7.0, 150 mM NaCl, 0.3 mM TCEP, 1.5 mM BSA; details: both partners purified
T8 construct: also called PTP^PTPN21 C1108S; source: E. coli Rosetta (DE3), purified (as the wild type); not shown: His-sumo, N-terminal, cleaved; EGFP, C-terminal, kept
T8 sequence (looked up): T2 sequence (looked up) with C237S

[11] = molecular target: T9, PTPN21 PTP E1067D C1108S-EGFP (UniProt Q16825 872-1174, E1067D | C1108S); assay: as above; details: both partners purified
T9 construct: also called PTP^PTPN21 C1108S E1067D; source: E. coli Rosetta (DE3), purified (as the wild type); not shown: His-sumo, N-terminal, cleaved; EGFP, C-terminal, kept
T9 sequence (looked up): T2 sequence (looked up) with E196D, C237S

[12] = molecular target: T10, PTPN21 PTP R1114Q (UniProt Q16825 872-1174, R1114Q); assay: as above; details: both partners purified
T10 construct: also called PTP^PTPN21 R1114Q; source: E. coli Rosetta (DE3), purified (as the wild type)
T10 sequence (looked up): T2 sequence (looked up) with R243Q

[13] = molecular target: T7, PTPN21 PTP C1108S; assay: crystal structure; mini PTPN21 C1108S: FERM and PTP joined on one chain by a flexible linker, hanging drop, 4°C; details: both partners purified
[14] = molecular target: T2, PTPN21 PTP-EGFP; assay: MST; PTP-EGFP fixed at 80 nM, FERM titrated from 300 μM to 0.09 nM; 20 mM Hepes pH 7.0, 150 mM NaCl, 0.3 mM TCEP, 1.5 mM BSA; mutants measured similarly; details: both partners purified
[15] = molecular target: T11, PTPN21 FERM-EGFP (UniProt Q16825 21-319); assay: MST
T11 chain: T1 sequence (Q16825 21-319)

[16] = substrate: Cc1cc(=O)oc2c(F)c(OP(=O)(O)O)c(F)cc12; assay: fluorescent phosphatase assay, Michaelis-Menten; type: biochemical, Homo sapiens; details: 50 mM Hepes pH 7.0, 150 mM NaCl, 1 mM EDTA, 2 mM DTT, RT

Molecule “HPV18 E7 protein, full length (from UniProt P06788 1-105) (natural protein)” has a Kd [1] of 200 nM.

“HPV18 E7 CR3 domain (from UniProt P06788 54-105) (domain or fragment)” was tested, and the Kd [1] was 49 nM.

In the case of `O=P(O)(O)O[C@@H]1[C@H](O)[C@H](OP(=O)(O)O)[C@@H](O)[C@H](O)[C@H]1O` [ins(1,3)P2], the Kd [2] is reported as about 6110 nM.

Molecule `O=P(O)(O)O[C@@H]1[C@@H](O)[C@H](OP(=O)(O)O)[C@H](O)[C@H](O)[C@H]1O` [ins(1,5)P2] has a Kd [2] of about 1320 nM.

B1: HPV18 E7 CR3 domain (domain or fragment)
chain: AEPQRHTMLCMCCKCEARIKLVVESSADDLRAFQQLFLNTLSFVCPWCASQQ
notes: source: E. coli Rosetta (DE3), purified (as the PTPN21 domains); not shown: His-sumo, N-terminal, cleaved
For B1, the Kd [3] was about 2.8 nM and the Kd [4] was 40.3 nM.

B2: HPV18 E7 protein, full length (natural protein)
chain: MHGPKATLQDIVLHLEPQNEIPVDLLCHEQLSDSEEENDEIDGVNHQHLPARRAEPQRHTMLCMCCKCEARIKLVVESSADDLRAFQQLFLNTLSFVCPWCASQQ
For B2, the Kd [5] was 215 nM and the Kd [4] was 352 nM.

B3: Src pY530 peptide (peptide)
peptide: STEPQ[pY]QPGENL
notes: also called Src pY530 synthetic peptide; Peptide Src pY530; source: synthetic peptide (ChinaPeptides Co. Ltd.)
In the case of B3, the Kd [6] is reported as 2930 nM, the Kd [7] is reported as 5610 nM and the Kd [8] is reported as 6230 nM. B3: binds [9]; binds [10]; binds [11]. B3: binds [12].

B4: PTPN21 FERM domain (residues 21 to 319) (domain or fragment, UniProt Q16825 21-319, looked up)
chain: T1 sequence (Q16825 21-319)
notes: also called FERM^PTPN21; source: E. coli Rosetta (DE3), purified (Ni-NTA, source Q, Superdex 200); not shown: His-sumo, N-terminal, cleaved
In the case of B4, the binding result [13] is reported as “binds” and the Kd [14] is reported as about 7600 nM.

B5: PTPN21 PTP domain (residues 872 to 1174) (domain or fragment)
chain: T2 sequence (looked up)
B5 was tested, and the Kd [15] was 2310 nM and 3480 nM and 1610 nM, the Km [16] was 28.6 µM and the kcat [16] was 1.2 s⁻¹.

B6: PTPN21 PTP domain (PTP^PTPN21) (Homo sapiens; E1067D) (protein)
chain: T2 sequence (looked up) with E196D
notes: PTP (phosphatase) domain, residues 872 to 1174; E. coli Rosetta (DE3), His-sumo tag removed
With B6 the Km ([16]; 0.2 nM enzyme) was 250.93 ± 15.69 µM and the kcat ([16]; 0.2 nM enzyme) was 38.32 ± 4.66 s⁻¹.
